Data: article PMC11677658

Target: Aspergillus sydowii UBOCC-A-108050 SULT (Aspergillus sydowii UBOCC-A-108050)
Assay: SEC; calibrated size exclusion chromatography of the purified recombinant protein alone (self-association)

stoichiometry N: 2
Substance: Aspergillus sydowii UBOCC-A-108050 SULT (enzyme)
